# Source: patent US20140178378A1
# Target: IL-6/sIL-6R complex
# Test: cell-based or functional assay
substance,measurement,value
wild type sgp130Fc (from UniProt P40189 23-619) (Fc fusion),"IC50, inhibition of IL-6/sIL-6R-induced proliferation of BAF3/gp130 cells (MTS cell viability assay, 3 days)",0.8 mg/L
